Measurements reported in article PMC7289447.
Changes are numbered by the printed parent chain. Names and notes keep the numbering of the source.

T1: Hsc20 M51Bpa, P53193
T1 chain: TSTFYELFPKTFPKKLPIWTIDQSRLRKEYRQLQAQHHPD

T2: Hsc20 Q46Bpa, P53193
T2 chain: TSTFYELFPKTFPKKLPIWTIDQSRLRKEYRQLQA

B1: Ssq1 wild-type D246A; E253A (protein)
chain: MLKSGRLNFLKLNINSRLLYSTNPQLTKKVIGIDLGTTNSAVAYIRDSNDKKSATIIENDEGQRTTPSIVAFDVKSSPQNKDQMKTLVGMAAKRQNAINSENTFFATKRLIGRAFNDKEVQRDMAVMPYKIVKCESNGQAYLSTSNGLIQSPSQIASILLKYLKQTSEEYLGEKVNLAVITVPAYFNDSQRQATKDAGKLAGLNVLRVINEPTAAALSFGIDDKRNNGLIAVYDLGGGTFDISILAIEDGVFAVRATNGDTHLGGEDFDNVIVNYIIDTFIHENPEITREEITKNRETMQRLKDVSERAKIDLSHVKKTFIELPFVYKSKHLRVPMTEEELDNMTLSLINRTIPPVKQALKDADIEPEDIDEVILVGGMTRMPKIRSVVKDLFGKSPNSSVNPDETVALGAAIQGGILSGEIKNVLLLDVTPLTLGIETFGGAFSPLIPRNTTVPVKKTEIFSTGVDGQAGVDIKVFQGERGLVRNNKLIGDLKLTGITPLPKGIPQIYVTFDIDADGIINVSAAEKSSGKQQSITVIPNSGLSEEEIAKLIEEANANRAQDNLIRQRLELISKADIMISDTENLFKRYEKLISSEKEYSNIVEDIKALRQAIKNFKANENDMSIDVNGIKKATDALQGRALKLFQSATKNQQNQGK
B2: Ssq1 wild-type E248A; D249A (protein)
chain: B1 chain with A246D, E248A, D249A, A253E

Columns and labels:
[1] = target: T1, Hsc20 M51Bpa, P53193; experiment: site-specific Bpa photo-crosslinking, SDS-PAGE band quantification; details: chain shown with the change; in the presence of ATP; UV irradiation; parent: est. 1.0; read off a plot
[2] = target: T2, Hsc20 Q46Bpa, P53193; experiment: as above; details: chain shown with the change; in the presence of ATP; UV irradiation; parent: est. 1.0; read off a plot

Binder | ratio to parent [1] | ratio to parent [2]
B1 | 0.11 | 0.22
B2 | 0.22 | 0.28
